In PMC3135172 (Cell, 2011):
Where no end group is shown, it is not given here.

Molecular target: BPTF bromodomain (human)
Experiment: ITC

Which Kd does the source give for GKGLGK(Ac)GGAKR (not fully specified) [H4K12ac peptide] here?
Its Kd is 69 ± 1 µM.
